# Measured values taken from paper PMC3797800, “The Coordination of Cell Growth during Fission Yeast Mating Requires Ras1-GTP Hydrolysis” (PLoS ONE, 2013).
# T1: CFP-Ras1 (S. pombe, UniProt P08647 1-219)
# T1 construct: Ras1, small GTPase of Schizosaccharomyces pombe; ORF amplified from the start codon to the stop codon and cloned behind CFP; also called Ras1-GTP; source: S. pombe (strain JY1618, Δras1Δgap1), expressed from pREP4x (nmt1 promoter), in living cells; not shown: CFP, N-terminal, kept
# T1 sequence (looked up): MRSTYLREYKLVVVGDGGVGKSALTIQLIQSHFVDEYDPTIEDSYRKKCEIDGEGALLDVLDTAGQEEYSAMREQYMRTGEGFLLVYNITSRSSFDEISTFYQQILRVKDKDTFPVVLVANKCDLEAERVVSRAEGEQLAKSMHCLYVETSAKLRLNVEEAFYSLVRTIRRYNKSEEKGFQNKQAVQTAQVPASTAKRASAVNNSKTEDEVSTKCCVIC
# B1: Gap1-YFP (natural protein, S. pombe, UniProt P33277 1-766, looked up)
# chain: MTKRHSGTLSSSVLPQTNRLSLLRNRESTSVLYTIDLDMESDVEDAFFHLDRELHDLKQQISSQSKQNFVLERDVRYLDSKIALLIQNRMAQEEQHEFAKRLNDNYNAVKGSFPDDRKLQLYGALFFLLQSEPAYIASLVRRVKLFNMDALLQIVMFNIYGNQYESREEHLLLSLFQMVLTTEFEATSDVLSLLRANTPVSRMLTTYTRRGPGQAYLRSILYQCINDVAIHPDLQLDIHPLSVYRYLVNTGQLSPSEDDNLLTNEEVSEFPAVKNAIQERSAQLLLLTKRFLDAVLNSIDEIPYGIRWVCKLIRNLTNRLFPSISDSTICSLIGGFFFLRFVNPAIISPQTSMLLDSCPSDNVRKTLATIAKIIQSVANGTSSTKTHLDVSFQPMLKEYEEKVHNLLRKLGNVGDFFEALELDQYIALSKKSLALEMTVNEIYLTHEIILENLDNLYDPDSHVHLILQELGEPCKSVPQEDNCLVTLPLYNRWDSSIPDLKQNLKVTREDILYVDAKTLFIQLLRLLPSGHPATRVPLDLPLIADSVSSLKSMSLMKKGIRAIELLDELSTLRLVDKENRYEPLTSEVEKEFIDLDALYERIRAERDALQDVHRAICDHNEYLQTQLQIYGSYLNNARSQIKPSHSDSKGFSRGVGVVGIKPKNIKSSNTVKLSSQQLKKESVLLNCTIPEFNVSNTYFTFSSPSTDNFVIAVYQRGHSKVLVEVCICLDDVLQRRYASNPVVDLGFLTFEANKLYHLFEQLFLRK
# notes: ORF amplified from the start codon, stop codon removed, cloned in front of YFP; source: S. pombe, expressed from pREP3x (nmt1 promoter), in living cells; not shown: YFP, C-terminal, kept
# Target: T1, CFP-Ras1
# Test: FRET or BRET; FACS-based FRET (405 nm excitation, 585/42 nm emission), living S. pombe cells co-expressing CFP and YFP fusions; percent of cells with a FRET signal over 0-8 h after 10 μM pheromone
# Conditions: partners not purified
binder,measurement,value
B1,"fold increase of the percent of cells with a FRET signal, 30 min pheromone against time 0",2 fold
